One block for each molecule: values may come before it.
Legend:
PFK-A1 (Sll1196) [1] = target: T1, PFK-A1 (Sll1196) (Synechocystis sp. PCC 6803, UniProt P72830); test: coupled NADH assay (aldolase/TPI/GPDH), […] nm; global MWC fit; format: biochemical; conditions: read-out: PFK-A11
T1 construct: gene pfkA1

PFK-A1 (Sll1196) [2] = target: T1, PFK-A1 (Sll1196); test: coupled NADH assay, effector test; format: biochemical; conditions: read-out: % residual activity at 1 mM
[3] = target: T2, PFK-A1 from A. brasilense (Azospirillum brasilense, UniProt A0A560AK87); test: coupled NADH assay, phosphate donor specificity; format: biochemical; conditions: 1 mM F6P, 2 mM ADP, 10 mM MgCl2, pH 7.7, 30 °C
T2 construct: gene pfkA; codon-optimized gene in pET15b, His tag, E. coli Rosetta (DE3), IMAC
T2 sequence (A0A560AK87 1-361): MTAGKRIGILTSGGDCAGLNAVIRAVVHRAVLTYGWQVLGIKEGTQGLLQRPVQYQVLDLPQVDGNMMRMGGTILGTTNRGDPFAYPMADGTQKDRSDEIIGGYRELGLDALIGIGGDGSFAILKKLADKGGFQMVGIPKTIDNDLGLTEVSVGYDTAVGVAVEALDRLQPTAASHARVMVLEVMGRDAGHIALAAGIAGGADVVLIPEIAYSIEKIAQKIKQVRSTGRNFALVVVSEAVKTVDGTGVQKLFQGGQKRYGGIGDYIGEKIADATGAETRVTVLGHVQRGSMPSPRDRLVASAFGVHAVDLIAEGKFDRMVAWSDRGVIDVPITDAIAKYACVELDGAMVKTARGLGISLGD

[4] = target: T3, PFK-A2 from M. aeruginosa PCC 9808 (Microcystis aeruginosa, UniProt I4HJC6); test: coupled NADH assay, phosphate donor specificity; format: biochemical; conditions: 1 mM F6P, 2 mM ADP, 10 mM MgCl2, pH 7.7, 30 °C
T3 construct: gene pfkA; codon-optimized gene in pET15b, His tag, E. coli Rosetta (DE3), IMAC
T3 sequence (I4HJC6 1-402): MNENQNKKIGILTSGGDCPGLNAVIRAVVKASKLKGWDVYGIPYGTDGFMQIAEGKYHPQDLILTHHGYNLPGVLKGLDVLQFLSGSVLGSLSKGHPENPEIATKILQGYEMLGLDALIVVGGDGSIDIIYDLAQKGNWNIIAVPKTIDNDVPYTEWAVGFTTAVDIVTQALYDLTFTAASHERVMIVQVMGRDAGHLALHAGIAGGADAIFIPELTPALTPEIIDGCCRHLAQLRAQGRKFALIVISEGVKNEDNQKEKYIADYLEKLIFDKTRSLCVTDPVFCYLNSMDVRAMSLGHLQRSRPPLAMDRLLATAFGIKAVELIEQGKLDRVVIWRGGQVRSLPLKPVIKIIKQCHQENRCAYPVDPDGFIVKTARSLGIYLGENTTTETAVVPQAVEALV

[5] = target: T4, PFK-A1 from Crocosphaera subtropica (Crocosphaera subtropica, UniProt B1WQ98); test: coupled NADH assay, phosphate donor specificity; format: biochemical; conditions: 1 mM F6P, 2 mM ADP, 10 mM MgCl2, pH 7.7, 30 °C
T4 construct: gene pfkA1; codon-optimized gene in pET15b, His tag, E. coli Rosetta (DE3), IMAC
T4 sequence (B1WQ98 1-360): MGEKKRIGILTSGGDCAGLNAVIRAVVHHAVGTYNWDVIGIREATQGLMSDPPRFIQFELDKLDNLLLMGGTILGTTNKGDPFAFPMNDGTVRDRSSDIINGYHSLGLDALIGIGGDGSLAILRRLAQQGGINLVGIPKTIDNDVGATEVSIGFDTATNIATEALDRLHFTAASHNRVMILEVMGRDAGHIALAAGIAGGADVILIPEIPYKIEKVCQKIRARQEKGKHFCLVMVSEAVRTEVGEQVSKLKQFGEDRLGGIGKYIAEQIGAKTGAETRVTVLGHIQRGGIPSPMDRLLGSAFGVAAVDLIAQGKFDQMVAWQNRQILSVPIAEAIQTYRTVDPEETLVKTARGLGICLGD

PFK-A2 (Sll0745) = target: T5, PFK-A2 (Sll0745) (Synechocystis sp. PCC 6803, UniProt Q55988); test: coupled NADH assay (aldolase/TPI/GPDH), […] nm; global MWC fit; format: biochemical
T5 construct: gene pfkA2

purified protein = substrate: Nc1ncnc2c1ncn2[C@@H]1O[C@H](COP(=O)(O)OP(=O)(O)O)[C@@H](O)[C@H]1O; test: purified protein; format: biochemical, Synechocystis sp. PCC 6803; conditions: MWC R-state constant, co-substrate F6P
[6] = target: the molecule itself; test: SEC; HiLoad 16/600 Superdex 200 prep grade, 50 mM HEPES/NaOH pH 7.5 (RT), 300 mM NaCl, 3 mM dithiothreitol, 1 ml/min; calibrated with five standard proteins; PFK-A1 applied at 5 mg/ml (62.5 uM), PFK-A2 at 7 mg/ml (87.5 uM); self-association
[7] = target: the molecule itself; test: native MS; nanoESI, Exactive Plus EMR Orbitrap, positive EMR mode; protein rebuffered to 200 mM or 1 M ammonium acetate pH 6.8, 5 uM stock; PFK-A1 also with F6P; self-association

Molecule: Nc1ncnc2c1ncn2[C@@H]1O[C@H](COP(=O)(O)OP(=O)(O)O)[C@@H](O)[C@H]1O [ADP]
- coupled NADH assay, phosphate donor specificity [3]: all three tested enzymes were specific for ADP and showed no activity with ATP
- coupled NADH assay, phosphate donor specificity [4]: all three tested enzymes were specific for ADP and showed no activity with ATP
- coupled NADH assay, phosphate donor specificity [5]: all three tested enzymes were specific for ADP and showed no activity with ATP

B1: Synechocystis sp. PCC 6803 ADP-dependent phosphofructokinase PFK-A1 (Sll1196) (enzyme, UniProt P72830 1-361, looked up)
chain: MGEIKRIGILTSGGDCAGLNAVIRSVVHHAIGTYGWEVIGIQEATQGLMENPSKAIALHRDNIDHLLMMGGTFLGTTNKGNPFAFPMADGTVRDRTEDIIAGYRQLGLDALIGIGGDGSLAILRRIAQQGGINLVGIPKTIDNDVGATEISIGFDTATNIATEALDRLHFTAASHNRVMVLEVMGRDAGHIALAAGIGGGADIILIPEIPYRIQSVCNKIRQRQAEGKNFCLVMVSEAVRTELGDQVKQIQQFGEDRYGGIGKYIAEQIAQRTGAETRVTVLGHIQRGGIPSPFDRLLGSVFGVAAVDLIAEGKFDHMVAWRNRQTISVPIEEAIQTYQTVQLDGTLVKTARGLGICLGND
notes: Phosphofructokinase isoenzyme PFK-A1 (sll1196) of Synechocystis sp; PCC 6803, amplified from genomic DNA with primers from the start codon (NdeI) to the stop codon (BamHI); calculated mass 40.47 kDa; Oligomeric state differs by method (dimer by SEC, mainly tetramer by native MS), so copies is left empty; No tag cleavage is described; also called ADP-PFK-A1; source: E. coli Rosetta (DE3), pET15b, …
- Km (purified protein; 10 mM MgCl2, pH 7.7, 30 °C): 0.14 (±0.01) mM
- kcat (purified protein; 10 mM MgCl2, pH 7.7, 30 °C): 5.9 s⁻¹
- stoichiometry N [6]: 2
- stoichiometry N [7]: 4

B2: Synechocystis sp. PCC 6803 ADP-dependent phosphofructokinase PFK-A2 (Sll0745) (enzyme, UniProt Q55988 1-384, looked up)
chain: MGTKRIGILTSGGDCPGLNAVIRAVVKASALKGWEVYGIPYGTDGFVEVAHGKYQAEDLLLTKHGYALPGMLKGLDVLQFLSGSVLGSLSKGHPEQPAIAEAILKGYAILDLEALIVIGGDGSLDIIYDLAQKGNWHIIAIPKTIDNDVPFTDLAVGFSTAVDIVTQALYDLTFTAASHERIIIVQVMGRDAGHLTLHAGIAGGADIILIPEITPCLTSEIIRNCCYQLMNLRKSGRHFALIVISEGVHDQNNKKNKHIADYLAEEISETSQHLCDIKDPAFCDLISLDIRATTLGHLQRSGTPLSFDRLLATVFGIRAVELIEQEIYDQVVIWRSGKVEHADLKPIISIIKECHQENRCPFPVDRDGFMVKTAKSLGIYLGED
notes: Phosphofructokinase isoenzyme PFK-A2 (sll0745) of Synechocystis sp; PCC 6803, amplified from genomic DNA with primers from the start codon (NdeI) to the stop codon (BamHI); calculated mass 43.64 kDa; Mainly dimer by SEC and native MS, with a lesser tetramer by native MS, so copies is left empty; No tag cleavage is described; also called ADP-PFK-A2; source: E. coli Rosetta (DE3), pET15b, purified …
- Km (purified protein; 5 mM MgCl2, pH 7.7, 30 °C): 0.17 (±0.03) mM
- kcat (purified protein; 5 mM MgCl2, pH 7.7, 30 °C): 12.3 s⁻¹
- stoichiometry N [6]: 2
- stoichiometry N [7]: 4

Results, then the molecule that gave them:

- Ki (PFK-A1 (Sll1196) [1]): 110 µM
Molecule: O=C(O)[C@H](O)COP(=O)(O)O [3PG]

- remaining activity at 1000 µM (PFK-A1 (Sll1196) [2]): 86%
Molecule: C=C(OP(=O)(O)O)C(=O)O [PEP]

- Ki (PFK-A2 (Sll0745)): 200 µM
- remaining activity at 1000 µM (PFK-A1 (Sll1196) [2]): 96%
Molecule: Nc1ncnc2c1ncn2[C@@H]1O[C@H](COP(=O)(O)OP(=O)(O)OP(=O)(O)O)[C@@H](O)[C@H]1O [ATP]
